Publication PMC3409459, “Absorption, distribution, metabolism and excretion of peginesatide, a novel erythropoiesis-stimulating agent, in rats” (Xenobiotica; the Fate of Foreign Compounds in Biological …, 2011)

Experiment: Tissue distribution of radioactivity by LSC following combustion, albino rats
Type: in vivo, male Sprague-Dawley (albino) rats
Details: mean ± SD, n=3
Description: Total captured radioactivity was subsequently measured via LSC.
Male Sprague-Dawley (albino) rats (n = 21; three per time point) were administered a single IV dose of 5 mg·kg^−1 [^14C]-peginesatide (27.5 μCi/kg) and tissue concentrations of radioactivity determined at 0.25, 6, and 24 h, and 7,14,30 and 60 days following dosing. Similarly, male Long Evans (pigmented) rats (n = 21; three per time point) were administered a single IV dose of 5 mg-kg^−1 [^14C]-peginesatide and plasma, skin, and eye concentrations of radioactivity were measured at the various time points through 60 days after dosing. At each time point, blood was collected, the animals sacrificed, and tissues excised. Tissues collected from the Sprague-Dawley rats included blood, plasma, adrenals, bone marrow, brain, eyes, fat, femur, Harderian glands, heart, hypophysis, intestine, kidneys, lungs, liver, pancreas, skeletal muscle, skin, spinal cord, spleen, stomach, submaxillary glands, testes, thymus, thyroid gland, and urinary bladder. Plasma, eyes, non-pigmented skin, and pigmented skin were collected from Long Evans rats. All tissue samples were measured for radioactivity by LSC following combustion. The liver and intestine were first homogenized in distilled water (20% w/v) prior to analysis. The concentration of radioactivity in the blood, plasma, and tissues was calculated and expressed as ug equiv·g^-1 or mLbased on the LSC counts and the specific activity of the dosing solution.

[1] = 7 Days after single IV 5 mg·kg^−1, LSC
[2] = 14 Days after single IV 5 mg·kg^−1, LSC
[3] = 30 Days after single IV 5 mg·kg^−1, LSC
[4] = 60 Days after single IV 5 mg·kg^−1, LSC

For Peginesatide, the “Concentration of the radioactivity, Adrenals” value (“Concentration … Adrenals” below) [1] was 10.2 ± 1.31 μg equiv·g^−1 or mL, the “Concentration of the radioactivity, Blood” value (shortened to “Concentration … Blood”) [1] was 3.87 ± 0.291 μg equiv·g^−1 or mL and the “Concentration of the radioactivity, Bone (femur)” value (from here on “Concentration … (femur)”) [1] was 0.788 ± 0.374 μg equiv·g^−1 or mL. For the same substance, the “Concentration of the radioactivity, Bone marrow” value (“Concentration … Bone marrow” below) [1] was 8.87 ± 0.641 μg equiv·g^−1 or mL, the “Concentration of the radioactivity, Brain” value (from here on “Concentration … Brain”) [1] was 0.200 ± 0.021 μg equiv·g^−1 or mL and the “Concentration of the radioactivity, Eyes” value [1] was 0.885 ± 0.111 μg equiv·g^−1 or mL. For the same substance, the “Concentration of the radioactivity, Fat” value [1] was 2.11 ± 0.693 μg equiv·g^−1 or mL, the “Concentration of the radioactivity, Harderian glands” value (“Concentration … Harderian glands” for short) [1] was 4.41 ± 0.100 μg equiv·g^−1 or mL and the “Concentration of the radioactivity, Heart” value (“Concentration … Heart” below) [1] was 4.01 ± 0.344 μg equiv·g^−1 or mL. For the same substance, the “Concentration of the radioactivity, Intestine” value (“Concentration … Intestine” below) [1] was 3.05 ± 0.259 μg equiv·g^−1 or mL, the “Concentration of the radioactivity, Kidneys” value (“Concentration … Kidneys” below) [1] was 5.68 ± 0.386 μg equiv·g^−1 or mL and the “Concentration of the radioactivity, Liver” value (from here on “Concentration … Liver”) [1] was 12.5 ± 0.727 μg equiv·g^−1 or mL. For the same substance, the “Concentration of the radioactivity, Lungs” value (“Concentration … Lungs” for short) [1] was 4.26 ± 0.285 μg equiv·g^−1 or mL, the “Concentration of the radioactivity, Pancreas” value (“Concentration … Pancreas” for short) [1] was 9.74 ± 0.231 μg equiv·g^−1 or mL and the “Concentration of the radioactivity, Pituitary” value (“Concentration … Pituitary” below) [1] was 8.31 ± 0.594 μg equiv·g^−1 or mL. For the same substance, the “Concentration of the radioactivity, Plasma” value (“Concentration … Plasma” for short) [1] was 7.80 ± 0.541 μg equiv·g^−1 or mL, the “Concentration of the radioactivity, Skeletal muscle” value (shortened to “Concentration … Skeletal muscle”) [1] was 0.563 ± 0.119 μg equiv·g^−1 or mL and the “Concentration of the radioactivity, Skin” value [1] was 3.06 ± 0.055 μg equiv·g^−1 or mL. For the same substance, the “Concentration of the radioactivity, Spinal cord” value (“Concentration … Spinal cord” for short) [1] was 0.129 ± 0.067 μg equiv·g^−1 or mL, the “Concentration of the radioactivity, Spleen” value (“Concentration … Spleen” below) [1] was 11.5 ± 0.204 μg equiv·g^−1 or mL and the “Concentration of the radioactivity, Stomach” value (from here on “Concentration … Stomach”) [1] was 2.36 ± 0.262 μg equiv·g^−1 or mL. For the same substance, the “Concentration of the radioactivity, Submandibular lymph nodes” value (“Concentration … Submandibular lymph nodes” below) [1] was 10.6 ± 0.553 μg equiv·g^−1 or mL, the “Concentration of the radioactivity, Testes” value (“Concentration … Testes” for short) [1] was 4.98 ± 0.222 μg equiv·g^−1 or mL and the “Concentration of the radioactivity, Thymus” value (shortened to “Concentration … Thymus”) [1] was 3.39 ± 0.560 μg equiv·g^−1 or mL. The “Concentration of the radioactivity, Thyroid gland” value (“Concentration … Thyroid gland” below) [1] was 17.0 ± 5.26 μg equiv·g^−1 or mL, the “Concentration of the radioactivity, Urinary bladder” value (“Concentration … Urinary bladder” for short) [1] was 4.52 ± 1.01 μg equiv·g^−1 or mL and the “Concentration … Adrenals” value [2] was 9.15 ± 2.39 μg equiv·g^−1 or mL. For the same substance, the “Concentration … Blood” value [2] was 1.03 ± 0.229 μg equiv·g^−1 or mL, the “Concentration … (femur)” value [2] was 0.388 ± 0.054 μg equiv·g^−1 or mL and the “Concentration … Bone marrow” value [2] was 6.33 ± 0.683 μg equiv·g^−1 or mL. For the same substance, the “Concentration … Brain” value [2] was 0.102 ± 0.014 μg equiv·g^−1 or mL, the “Concentration of the radioactivity, Eyes” value [2] was 0.765 ± 0.022 μg equiv·g^−1 or mL and the “Concentration of the radioactivity, Fat” value [2] was 1.14 ± 0.475 μg equiv·g^−1 or mL. For the same substance, the “Concentration … Harderian glands” value [2] was 5.21 ± 0.433 μg equiv·g^−1 or mL, the “Concentration … Heart” value [2] was 2.73 ± 0.254 μg equiv·g^−1 or mL and the “Concentration … Intestine” value [2] was 1.78 ± 0.297 μg equiv·g^−1 or mL. The “Concentration … Kidneys” value [2] was 4.49 ± 1.02 μg equiv·g^−1 or mL, the “Concentration … Liver” value [2] was 8.53 ± 0.754 μg equiv·g^−1 or mL and the “Concentration … Lungs” value [2] was 3.38 ± 0.703 μg equiv·g^−1 or mL. For the same substance, the “Concentration … Pancreas” value [2] was 9.10 ± 0.629 μg equiv·g^−1 or mL, the “Concentration … Pituitary” value [2] was 6.25 ± 1.17 μg equiv·g^−1 or mL and the “Concentration … Plasma” value [2] was 2.00 ± 0.605 μg equiv·g^−1 or mL. The “Concentration … Skeletal muscle” value [2] was 0.379 ± 0.108 μg equiv·g^−1 or mL, the “Concentration of the radioactivity, Skin” value [2] was 1.70 ± 0.109 μg equiv·g^−1 or mL and the “Concentration … Spinal cord” value [2] was 0.069 ± 0.030 μg equiv·g^−1 or mL. The “Concentration … Spleen” value [2] was 23.6 ± 2.82 μg equiv·g^−1 or mL, the “Concentration … Stomach” value [2] was 2.00 ± 0.118 μg equiv·g^−1 or mL and the “Concentration … Submandibular lymph nodes” value [2] was 10.9 ± 1.32 μg equiv·g^−1 or mL. For the same substance, the “Concentration … Testes” value [2] was 5.19 ± 0.448 μg equiv·g^−1 or mL, the “Concentration … Thymus” value [2] was 1.81 ± 0.249 μg equiv·g^−1 or mL and the “Concentration … Thyroid gland” value [2] was 13.2 ± 3.52 μg equiv·g^−1 or mL. The “Concentration … Urinary bladder” value [2] was 2.30 ± 0.326 μg equiv·g^−1 or mL, the “Concentration … Adrenals” value [3] was 7.90 ± 1.57 μg equiv·g^−1 or mL and the “Concentration … Blood” value [3] was 0.466 ± 0.054 μg equiv·g^−1 or mL. The “Concentration … (femur)” value [3] was 0.278 ± 0.057 μg equiv·g^−1 or mL, the “Concentration … Bone marrow” value [3] was 4.12 ± 1.37 μg equiv·g^−1 or mL and the “Concentration … Brain” value [3] was 0.080 ± 0.010 μg equiv·g^−1 or mL. The “Concentration of the radioactivity, Eyes” value [3] was 0.511 ± 0.147 μg equiv·g^−1 or mL, the “Concentration of the radioactivity, Fat” value [3] was 0.582 ± 0.070 μg equiv·g^−1 or mL and the “Concentration … Harderian glands” value [3] was 3.88 ± 0.907 μg equiv·g^−1 or mL. The “Concentration … Heart” value [3] was 1.57 ± 0.244 μg equiv·g^−1 or mL, the “Concentration … Intestine” value [3] was 1.40 ± 0.183 μg equiv·g^−1 or mL and the “Concentration … Kidneys” value [3] was 3.03 ± 0.429 μg equiv·g^−1 or mL. For the same substance, the “Concentration … Liver” value [3] was 3.45 ± 0.808 μg equiv·g^−1 or mL, the “Concentration … Lungs” value [3] was 1.78 ± 0.237 μg equiv·g^−1 or mL and the “Concentration … Pancreas” value [3] was 6.67 ± 1.70 μg equiv·g^−1 or mL. For the same substance, the “Concentration … Pituitary” value [3] was 7.24 ± 0.292 μg equiv·g^−1 or mL, the “Concentration … Plasma” value [3] was 0.780 ± 0.099 μg equiv·g^−1 or mL and the “Concentration … Skeletal muscle” value [3] was 0.152 ± 0.012 μg equiv·g^−1 or mL. The “Concentration of the radioactivity, Skin” value [3] was 0.889 ± 0.228 μg equiv·g^−1 or mL, the “Concentration … Spinal cord” value [3] was 0.033 ± 0.016 μg equiv·g^−1 or mL and the “Concentration … Spleen” value [3] was 17.7 ± 4.96 μg equiv·g^−1 or mL. The “Concentration … Stomach” value [3] was 1.28 ± 0.106 μg equiv·g^−1 or mL, the “Concentration … Submandibular lymph nodes” value [3] was 7.86 ± 1.19 μg equiv·g^−1 or mL and the “Concentration … Testes” value [3] was 4.33 ± 1.00 μg equiv·g^−1 or mL. The “Concentration … Thymus” value [3] was 1.14 ± 0.138 μg equiv·g^−1 or mL, the “Concentration … Thyroid gland” value [3] was 13.9 ± 3.33 μg equiv·g^−1 or mL and the “Concentration … Urinary bladder” value [3] was 1.77 ± 0.889 μg equiv·g^−1 or mL. For the same substance, the “Concentration … Adrenals” value [4] was 5.32 ± 0.996 μg equiv·g^−1 or mL, the “Concentration … Blood” value [4] was 0.170 ± 0.036 μg equiv·g^−1 or mL and the “Concentration … (femur)” value [4] was 0.046 ± 0.001 μg equiv·g^−1 or mL. The “Concentration … Bone marrow” value [4] was 0.361 ± 0.142 μg equiv·g^−1 or mL, the “Concentration … Brain” value [4] was 0.057 ± 0.006 μg equiv·g^−1 or mL and the “Concentration of the radioactivity, Eyes” value [4] was 0.299 ± 0.076 μg equiv·g^−1 or mL. For the same substance, the “Concentration of the radioactivity, Fat” value [4] was 0.456 ± 0.135 μg equiv·g^−1 or mL, the “Concentration … Harderian glands” value [4] was 2.75 ± 0.281 μg equiv·g^−1 or mL and the “Concentration … Heart” value [4] was 1.14 ± 0.205 μg equiv·g^−1 or mL. The “Concentration … Intestine” value [4] was 0.624 ± 0.033 μg equiv·g^−1 or mL, the “Concentration … Kidneys” value [4] was 2.11 ± 0.574 μg equiv·g^−1 or mL and the “Concentration … Liver” value [4] was 1.17 ± 0.199 μg equiv·g^−1 or mL. The “Concentration … Lungs” value [4] was 1.05 ± 0.238 μg equiv·g^−1 or mL and the “Concentration … Pancreas” value [4] was 5.92 ± 0.436 μg equiv·g^−1 or mL.
